{"source": "patent US12570750B2", "about": "“Antibodies that bind adenosine A2A receptors and methods of use thereof to treat cancer and neurological diseases” (Twist Bioscience Corporation, priority 2019, dated 2026)", "target": "adenosine A2A receptor (Homo sapiens, UniProt P29274)", "sequence (P29274 whole entry)": "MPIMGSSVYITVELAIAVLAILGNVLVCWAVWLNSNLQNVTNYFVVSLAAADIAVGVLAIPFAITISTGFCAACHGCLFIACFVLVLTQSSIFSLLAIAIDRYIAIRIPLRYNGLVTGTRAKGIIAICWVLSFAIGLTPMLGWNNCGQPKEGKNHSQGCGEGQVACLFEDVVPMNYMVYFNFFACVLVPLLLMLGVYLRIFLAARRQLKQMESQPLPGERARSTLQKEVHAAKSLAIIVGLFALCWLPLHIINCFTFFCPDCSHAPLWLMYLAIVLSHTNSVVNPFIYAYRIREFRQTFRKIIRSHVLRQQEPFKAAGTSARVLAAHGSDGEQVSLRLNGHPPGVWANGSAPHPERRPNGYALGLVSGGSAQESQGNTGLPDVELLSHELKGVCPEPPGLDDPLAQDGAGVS", "experiment": "LANCE allosteric cAMP assay: titrated IgG, then fixed NECA concentration", "type": "cell-based", "conditions": "Table 12", "protocol": "A2A-1 and A2A-9 were assayed for allosteric modulation.\nA2A-9 was assayed as described in Example 16."}
{"molecule": "A2A-9: A2AR variant immunoglobulin, CDRH1-3 SEQ ID NOs 14/103/192 (antibody, V domains shown) VH: EVQLQQSGPGLVKPSQSLSLTCSVTGYSITSGYYWNWIRQFPGKKLEWMGYIRYDGSNNYNPSLKNRISITRDTSKNQFFLKLNSVTTDDTATYYCARVHHYYGSSYFDYWGQGTTLTVSS VL: DIVMTQSQKFMSTSVGDRVSATCKASQNVGSSVAWFQQKPGQSPKALIYSTSYRYSGVPDRFTGSGSGTDFTLTISNVQSEDLAEYFCQQYNSYPLTFGAGTKLEIK", "values": [{"measurement": "Functional classification, Example 18", "result": "antagonist"}]}
